In this test the target is AcMYB1 (full length) in the AD plasmid pGADT7 (Allium cepa (onion)).

The results in this text go back to publication PMC9418810.

A value given as a limit tells only on which side of the number the result lay.

The substance “AcB2 (full length, 1–615 aa) in the BD plasmid pGBKT7 (natural protein)” showed an AcANS or AcF3H1 promoter-luciferase reporter activation in Arabidopsis leaf protoplasts, coexpression of AcB2 and AcMYB1 compared with AcMYB1 alone greater than 2.5 fold.
